Data as given in PMC7948422, “Repurposing p97 inhibitors for chemical modulation of the bacterial ClpB–DnaK bichaperone system” (The Journal of Biological Chemistry, 2020).
pKd: −log10 of the molar value.

Assays:
FITC-casein [1] = test: fluorescence polarisation; fluorescence anisotropy; ClpB E279Q/E678Q titrated into 100-nM FITC-casein with 5-mM ATP and 80-μM DBeQ; fit of a binding isotherm with a Hill number
FITC-casein [2] = test: fluorescence polarisation; fluorescence anisotropy; ClpB E279Q/E678Q titrated into 100-nM FITC-casein with 5-mM ATP, without DBeQ; fit of a binding isotherm with a Hill number

pKd (FITC-casein [1]): 7.11
pKd (FITC-casein [2]): 7.11
Substance: ClpB E279Q/E678Q (from UniProt P63284 1-857) (enzyme)
